According to patent US20250276077A1, “EPHA2 ANTIBODIES” (Immunome, Inc., priority 2022, published 2025):

Tested on: A549 cells
Assay: ADCC (KILR target cells, NK92 CD16 chimera effector cells)
Format: cell-based, human
Settings: A549 tumor cells; for ADCC - dAct rel. parent, Trial 1: Trial 1, relative to parent antibody
Method: To detect Antibody-dependent cellular cytotoxicity (ADCC), KILR™-transfected target cells were opsonized with different concentrations of the antibody at room temperature for 20 minutes. Following, NK92 cells carrying a mouse extracellular-human intracellular CD16 chimera were added at a 5:1 ratio of effector to target cells. After a 4 h co-culture at 37° C. and 5% CO2, pre-mixed KILR™ detection reagent was added to each well at equal volume and allowed to incubate for 30 min at room temperature in the dark before reading luminescence on a pate reader. Cytotoxicity was calculated after background (spontaneous release) subtraction and expressed as percent of a maximum lysis control.

| Molecule | ADCC - dAct rel. parent, Trial 1 [%] | ADCC - dAct rel. parent, Trial 2 (Trial 2, relative to parent antibody) [%] |
| --- | --- | --- |
| AB-010686: VH SEQ ID NO: 639, VL SEQ ID NO: 704; L93SR relative to AB-010361 (antibody, V domains shown) VH: QVQLQQWGAGLLKPSETLSLTCAVYGGSFSGYYWSWIRQPPGKGLEWIGEINHRGSINYNNYNPSLKSRVTISVDTSKNQFSLKLSSVTAADTAVYYCAKPLRPHCTNGVCYSGDAFDIWGQGTMVTVAS VL: SYVLTQPPSVSVAPGQTARITCGGNNIGSKNVHWYQQKPGQAPVLVVYDDSDRPSGIPEQFSGSNSGNTATLTISRVEAGDEADYYCQVWDSRSDHVVFGGGTKLTVL | 132.3 | – |
| AB-010688: VH SEQ ID NO: 641, VL SEQ ID NO: 706; L29SY; L93SE relative to AB-010361 (antibody, V domains shown) VH: QVQLQQWGAGLLKPSETLSLTCAVYGGSFSGYYWSWIRQPPGKGLEWIGEINHRGSINYNNYNPSLKSRVTISVDTSKNQFSLKLSSVTAADTAVYYCAKPLRPHCTNGVCYSGDAFDIWGQGTMVTVAS VL: SYVLTQPPSVSVAPGQTARITCGGNNIGYKNVHWYQQKPGQAPVLVVYDDSDRPSGIPEQFSGSNSGNTATLTISRVEAGDEADYYCQVWDSESDHVVFGGGTKLTVL | 129.9 | 108.0 |
| AB-010687: VH SEQ ID NO: 640, VL SEQ ID NO: 705; L93SE relative to AB-010361 (antibody, V domains shown) VH: QVQLQQWGAGLLKPSETLSLTCAVYGGSFSGYYWSWIRQPPGKGLEWIGEINHRGSINYNNYNPSLKSRVTISVDTSKNQFSLKLSSVTAADTAVYYCAKPLRPHCTNGVCYSGDAFDIWGQGTMVTVAS VL: SYVLTQPPSVSVAPGQTARITCGGNNIGSKNVHWYQQKPGQAPVLVVYDDSDRPSGIPEQFSGSNSGNTATLTISRVEAGDEADYYCQVWDSESDHVVFGGGTKLTVL | 166.8 | – |
